From PMC12529874

What was measured:
[1] = target: H2O2-oxidized SOD1(C6A) (Cys111 sulfonylated) (human); experiment: not stated; Zn2+-bound SOD1(WT, C6A) before and after oxidation with H2O2; Figure S7, method not given
[2] = target: apo-SOD1(C6A) (human); experiment: SEC-MALS; gel filtration of 20 μM apo protein in MN buffer (100 mM MOPS, 50 mM NaCl, pH 7.0), before or after treatment with 10 mM H2O2, monitored at 280 nm, masses by MALS
[3] = target: apo-SOD1(C6A) (human); experiment: native MS; mass spectra of apo-SOD1(C6A) under native conditions, before and after treatment with H2O2; spectra normalized to the 11+ charge state of the dimer
[4] = target: apo-SOD1(C6A) (human); experiment: not stated; Zn2+-bound SOD1(WT, C6A) before and after oxidation with H2O2; Figure S7, method not given

| stoichiometry N [1] | stoichiometry N [2] | stoichiometry N [3] | stoichiometry N [4] | Substance |
| --- | --- | --- | --- | --- |
| 2 |  |  |  | H2O2-oxidized SOD1(C6A) (Cys111 sulfonylated) (enzyme) |
|  | 2 | 2 | 2 | apo-SOD1(C6A) (enzyme) |
